{"source": "paper PMC10441612", "binders": {"B1": {"name": "Noe1-His (Noelin 1 with C-terminal hexa-histidine tag), O88998 17-485 (natural protein)", "chain": "MITNWMSQTLPSLVGLNTTRLSAASGGTLDRSTGVLPTNPEESWQVYSSAQDSEGRCICTVVAPQQTMCSRDARTKQLRQLLEKVQNMSQSIEVLDRRTQRDLQYVEKMENQMKGLETKFKQVEESHKQHLARQFKAIKAKMDELRPLIPVLEEYKADAKLVLQFKEEVQNLTSVLNELQEEIGAYDYDELQSRVSNLEERLRACMQKLACGKLTGISDPVTVKTSGSRFGSWMTDPLAPEGDNRVWYMDGYHNNRFVREYKSMVDFMNTDNFTSHRLPHPWSGTGQVVYNGSIYFNKFQSHIIIRFDLKTEAILKTRSLDYAGYNNMYHYAWGGHSDIDLMVDENGLWAVYATNQNAGNIVISKLDPVSLQILQTWNTSYPKRSAGEAFIICGTLYVTNGYSGGTKVHYAYQTNASTYEYIDIPFQNKYSHISMLDYNPKDRALYAWNNGHQTLYNVTLFHVIRSDEL", "modifications": "here or on the partner: glycosylated; glycosylated"}}, "target": "Noe1-His (Noelin 1 with C-terminal hexa-histidine tag), O88998", "assay": "AUC", "details": "remark: other sources report otherwise", "data": [{"binder": "B1", "values": [{"measurement": "stoichiometry N", "result": 4}]}]}
